Measured values as given in patent US20170015742A1 (published 2017).

B1: 9E8.4-SL-4G8.3 DVD-Ig (PR-1563998) (bispecific antibody, human IgG1, kappa, L234A L235A)
heavy: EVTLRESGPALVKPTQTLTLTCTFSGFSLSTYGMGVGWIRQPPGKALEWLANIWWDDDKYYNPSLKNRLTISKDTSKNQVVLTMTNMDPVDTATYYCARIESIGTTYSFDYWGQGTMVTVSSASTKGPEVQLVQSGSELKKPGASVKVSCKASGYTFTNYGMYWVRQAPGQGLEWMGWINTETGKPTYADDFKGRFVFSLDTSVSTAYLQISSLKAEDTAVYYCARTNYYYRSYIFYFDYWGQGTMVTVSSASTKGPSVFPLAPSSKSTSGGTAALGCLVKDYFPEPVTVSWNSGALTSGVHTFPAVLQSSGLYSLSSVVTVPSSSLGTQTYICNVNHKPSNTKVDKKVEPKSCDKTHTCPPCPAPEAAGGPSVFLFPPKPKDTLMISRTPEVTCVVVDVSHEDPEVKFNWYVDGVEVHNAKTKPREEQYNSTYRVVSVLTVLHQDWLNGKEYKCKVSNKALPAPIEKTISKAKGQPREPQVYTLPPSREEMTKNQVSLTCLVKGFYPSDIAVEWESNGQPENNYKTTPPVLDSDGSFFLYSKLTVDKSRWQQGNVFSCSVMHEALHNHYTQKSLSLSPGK
light: EFVLTQSPGTLSLSPGERATLSCERSSGDIGDSYVSWYQQKPGQAPRLVIYADDQRPSGIPDRFSGSGSGTDFTLTISRLEPEDFAVYYCQSYDINIDIVFGGGTKVEIKGTVAAPSVFIFPPDTVLTQSPATLSLSPGERATLSCRASESVSTHMHWYQQKPGQAPRLLIYGASNLESGVPARFSGSGSGTDFTLTISSLEPEDFAVYFCQQSWNDPFTFGQGTKLEIKRTVAAPSVFIFPPSDEQLKSGTASVVCLLNNFYPREAKVQWKVDNALQSGNSQESVTEQDSKDSTYSLSSTLTLSKADYEKHKVYACEVTHQGLSSPVTKSFNRGEC
B2: 9E8.4-LS-4G8.3 DVD-Ig (PR-1564009) (bispecific antibody, human IgG1, kappa, L234A L235A)
heavy: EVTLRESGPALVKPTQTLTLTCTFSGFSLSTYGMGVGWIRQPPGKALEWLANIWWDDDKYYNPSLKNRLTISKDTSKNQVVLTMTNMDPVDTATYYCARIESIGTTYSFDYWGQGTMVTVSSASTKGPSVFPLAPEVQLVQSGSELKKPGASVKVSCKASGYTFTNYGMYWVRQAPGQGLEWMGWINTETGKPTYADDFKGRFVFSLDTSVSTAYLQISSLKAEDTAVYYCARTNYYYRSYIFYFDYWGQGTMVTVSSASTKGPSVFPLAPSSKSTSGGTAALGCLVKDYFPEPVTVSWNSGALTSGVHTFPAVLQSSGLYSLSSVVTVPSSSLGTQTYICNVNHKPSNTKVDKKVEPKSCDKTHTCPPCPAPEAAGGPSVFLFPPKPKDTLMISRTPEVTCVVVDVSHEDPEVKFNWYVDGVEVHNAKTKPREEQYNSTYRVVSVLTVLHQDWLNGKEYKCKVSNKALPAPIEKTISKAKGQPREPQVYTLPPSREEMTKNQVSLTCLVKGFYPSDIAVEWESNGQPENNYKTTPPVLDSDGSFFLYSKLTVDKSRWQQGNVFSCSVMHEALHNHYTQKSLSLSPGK
light: EFVLTQSPGTLSLSPGERATLSCERSSGDIGDSYVSWYQQKPGQAPRLVIYADDQRPSGIPDRFSGSGSGTDFTLTISRLEPEDFAVYYCQSYDINIDIVFGGGTKVEIKGTVAAPDTVLTQSPATLSLSPGERATLSCRASESVSTHMHWYQQKPGQAPRLLIYGASNLESGVPARFSGSGSGTDFTLTISSLEPEDFAVYFCQQSWNDPFTFGQGTKLEIKRTVAAPSVFIFPPSDEQLKSGTASVVCLLNNFYPREAKVQWKVDNALQSGNSQESVTEQDSKDSTYSLSSTLTLSKADYEKHKVYACEVTHQGLSSPVTKSFNRGEC
B3: 4G8.3-GS-9E8.4E DVD-Ig (PR-1575832) (bispecific antibody, human IgG1, kappa, L234A L235A)
heavy: EVQLVQSGSELKKPGASVKVSCKASGYTFTNYGMYWVRQAPGQGLEWMGWINTETGKPTYADDFKGRFVFSLDTSVSTAYLQISSLKAEDTAVYYCARTNYYYRSYIFYFDYWGQGTMVTVSSGGGGSGGGGSEVTLRESGPALVKPTQTLTLTCTFSGFSLSTYGMGVGWIRQPPGKALEWLANIWWDDDKYYNPSLKNRLTISKDTSKNQVVLTMTNMDPVDTATYYCARIESIGTTYSFDYWGQGTMVTVSSASTKGPSVFPLAPSSKSTSGGTAALGCLVKDYFPEPVTVSWNSGALTSGVHTFPAVLQSSGLYSLSSVVTVPSSSLGTQTYICNVNHKPSNTKVDKKVEPKSCDKTHTCPPCPAPEAAGGPSVFLFPPKPKDTLMISRTPEVTCVVVDVSHEDPEVKFNWYVDGVEVHNAKTKPREEQYNSTYRVVSVLTVLHQDWLNGKEYKCKVSNKALPAPIEKTISKAKGQPREPQVYTLPPSREEMTKNQVSLTCLVKGFYPSDIAVEWESNGQPENNYKTTPPVLDSDGSFFLYSKLTVDKSRWQQGNVFSCSVMHEALHNAYTQKSLSLSPGK
light: DTVLTQSPATLSLSPGERATLSCRASESVSTHMHWYQQKPGQAPRLLIYGASNLESGVPARFSGSGSGTDFTLTISSLEPEDFAVYFCQQSWNDPFTFGQGTKLEIKRGGSGGGGSGEFVLTQSPGTLSLSPGERATLSCERSSGDIGESYVSWYQQKPGQAPRLVIYADDQRPSGIPDRFSGSGSGTDFTLTISRLEPEDFAVYYCQSYDINIDIVFGGGTKVEIKRTVAAPSVFIFPPSDEQLKSGTASVVCLLNNFYPREAKVQWKVDNALQSGNSQESVTEQDSKDSTYSLSSTLTLSKADYEKHKVYACEVTHQGLSSPVTKSFNRGEC
B4: 4G8.3-SS-9E8.4 DVD-Ig (PR-1564011) (bispecific antibody, human IgG1, kappa, L234A L235A)
heavy: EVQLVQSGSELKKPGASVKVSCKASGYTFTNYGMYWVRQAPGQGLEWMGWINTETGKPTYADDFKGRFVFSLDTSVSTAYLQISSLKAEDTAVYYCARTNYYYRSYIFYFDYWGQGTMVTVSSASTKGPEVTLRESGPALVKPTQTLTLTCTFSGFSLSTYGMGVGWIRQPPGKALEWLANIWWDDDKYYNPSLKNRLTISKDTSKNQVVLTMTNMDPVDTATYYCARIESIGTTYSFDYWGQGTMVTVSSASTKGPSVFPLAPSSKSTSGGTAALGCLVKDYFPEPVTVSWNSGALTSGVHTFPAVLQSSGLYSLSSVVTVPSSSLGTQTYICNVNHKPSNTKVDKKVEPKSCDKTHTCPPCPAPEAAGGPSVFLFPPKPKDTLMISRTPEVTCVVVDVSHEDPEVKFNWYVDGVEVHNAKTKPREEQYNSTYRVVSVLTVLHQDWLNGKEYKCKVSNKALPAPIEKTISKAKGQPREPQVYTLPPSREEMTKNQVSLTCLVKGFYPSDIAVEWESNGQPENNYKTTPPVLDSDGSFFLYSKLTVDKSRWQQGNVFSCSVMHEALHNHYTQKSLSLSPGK
light: DTVLTQSPATLSLSPGERATLSCRASESVSTHMHWYQQKPGQAPRLLIYGASNLESGVPARFSGSGSGTDFTLTISSLEPEDFAVYFCQQSWNDPFTFGQGTKLEIKRTVAAPEFVLTQSPGTLSLSPGERATLSCERSSGDIGDSYVSWYQQKPGQAPRLVIYADDQRPSGIPDRFSGSGSGTDFTLTISRLEPEDFAVYYCQSYDINIDIVFGGGTKVEIKGTVAAPSVFIFPPSDEQLKSGTASVVCLLNNFYPREAKVQWKVDNALQSGNSQESVTEQDSKDSTYSLSSTLTLSKADYEKHKVYACEVTHQGLSSPVTKSFNRGEC
B5: 4G8.3-SL-9E8.4E DVD-Ig (PR-1575834) (bispecific antibody, human IgG1, kappa, L234A L235A)
heavy: EVQLVQSGSELKKPGASVKVSCKASGYTFTNYGMYWVRQAPGQGLEWMGWINTETGKPTYADDFKGRFVFSLDTSVSTAYLQISSLKAEDTAVYYCARTNYYYRSYIFYFDYWGQGTMVTVSSASTKGPEVTLRESGPALVKPTQTLTLTCTFSGFSLSTYGMGVGWIRQPPGKALEWLANIWWDDDKYYNPSLKNRLTISKDTSKNQVVLTMTNMDPVDTATYYCARIESIGTTYSFDYWGQGTMVTVSSASTKGPSVFPLAPSSKSTSGGTAALGCLVKDYFPEPVTVSWNSGALTSGVHTFPAVLQSSGLYSLSSVVTVPSSSLGTQTYICNVNHKPSNTKVDKKVEPKSCDKTHTCPPCPAPEAAGGPSVFLFPPKPKDTLMISRTPEVTCVVVDVSHEDPEVKFNWYVDGVEVHNAKTKPREEQYNSTYRVVSVLTVLHQDWLNGKEYKCKVSNKALPAPIEKTISKAKGQPREPQVYTLPPSREEMTKNQVSLTCLVKGFYPSDIAVEWESNGQPENNYKTTPPVLDSDGSFFLYSKLTVDKSRWQQGNVFSCSVMHEALHNAYTQKSLSLSPGK
light: DTVLTQSPATLSLSPGERATLSCRASESVSTHMHWYQQKPGQAPRLLIYGASNLESGVPARFSGSGSGTDFTLTISSLEPEDFAVYFCQQSWNDPFTFGQGTKLEIKRTVAAPSVFIFPPEFVLTQSPGTLSLSPGERATLSCERSSGDIGESYVSWYQQKPGQAPRLVIYADDQRPSGIPDRFSGSGSGTDFTLTISRLEPEDFAVYYCQSYDINIDIVFGGGTKVEIKRTVAAPSVFIFPPSDEQLKSGTASVVCLLNNFYPREAKVQWKVDNALQSGNSQESVTEQDSKDSTYSLSSTLTLSKADYEKHKVYACEVTHQGLSSPVTKSFNRGEC
B6: CODV009 cross-over DVD-Ig (PR-1571821) (bispecific antibody, human IgG1, kappa, L234A L235A)
heavy: EVQLVQSGSELKKPGASVKVSCKASGYTFTNYGMYWVRQAPGQGLEWMGWINTETGKPTYADDFKGRFVFSLDTSVSTAYLQISSLKAEDTAVYYCARTNYYYRSYIFYFDYWGQGTMVTVSSGEVTLRESGPALVKPTQTLTLTCTFSGFSLSTYGMGVGWIRQPPGKALEWLANIWWDDDKYYNPSLKNRLTISKDTSKNQVVLTMTNMDPVDTATYYCARIESIGTTYSFDYWGQGTMVTVSSGGASTKGPSVFPLAPSSKSTSGGTAALGCLVKDYFPEPVTVSWNSGALTSGVHTFPAVLQSSGLYSLSSVVTVPSSSLGTQTYICNVNHKPSNTKVDKKVEPKSCDKTHTCPPCPAPEAAGGPSVFLFPPKPKDTLMISRTPEVTCVVVDVSHEDPEVKFNWYVDGVEVHNAKTKPREEQYNSTYRVVSVLTVLHQDWLNGKEYKCKVSNKALPAPIEKTISKAKGQPREPQVYTLPPSREEMTKNQVSLTCLVKGFYPSDIAVEWESNGQPENNYKTTPPVLDSDGSFFLYSKLTVDKSRWQQGNVFSCSVMHEALHNAYTQKSLSLSPGK
light: EFVLTQSPGTLSLSPGERATLSCERSSGDIGDSYVSWYQQKPGQAPRLVIYADDQRPSGIPDRFSGSGSGTDFTLTISRLEPEDFAVYYCQSYDINIDIVFGGGTKVEIKGGGSGGGDTVLTQSPATLSLSPGERATLSCRASESVSTHMHWYQQKPGQAPRLLIYGASNLESGVPARFSGSGSGTDFTLTISSLEPEDFAVYFCQQSWNDPFTFGQGTKLEIKGGGSGRTVAAPSVFIFPPSDEQLKSGTASVVCLLNNFYPREAKVQWKVDNALQSGNSQESVTEQDSKDSTYSLSSTLTLSKADYEKHKVYACEVTHQGLSSPVTKSFNRGEC
B7: CODV010 cross-over DVD-Ig (PR-1571823) (bispecific antibody, human IgG1, kappa, L234A L235A)
heavy: EVTLRESGPALVKPTQTLTLTCTFSGFSLSTYGMGVGWIRQPPGKALEWLANIWWDDDKYYNPSLKNRLTISKDTSKNQVVLTMTNMDPVDTATYYCARIESIGTTYSFDYWGQGTMVTVSSGEVQLVQSGSELKKPGASVKVSCKASGYTFTNYGMYWVRQAPGQGLEWMGWINTETGKPTYADDFKGRFVFSLDTSVSTAYLQISSLKAEDTAVYYCARTNYYYRSYIFYFDYWGQGTMVTVSSGGASTKGPSVFPLAPSSKSTSGGTAALGCLVKDYFPEPVTVSWNSGALTSGVHTFPAVLQSSGLYSLSSVVTVPSSSLGTQTYICNVNHKPSNTKVDKKVEPKSCDKTHTCPPCPAPEAAGGPSVFLFPPKPKDTLMISRTPEVTCVVVDVSHEDPEVKFNWYVDGVEVHNAKTKPREEQYNSTYRVVSVLTVLHQDWLNGKEYKCKVSNKALPAPIEKTISKAKGQPREPQVYTLPPSREEMTKNQVSLTCLVKGFYPSDIAVEWESNGQPENNYKTTPPVLDSDGSFFLYSKLTVDKSRWQQGNVFSCSVMHEALHNAYTQKSLSLSPGK
light: DTVLTQSPATLSLSPGERATLSCRASESVSTHMHWYQQKPGQAPRLLIYGASNLESGVPARFSGSGSGTDFTLTISSLEPEDFAVYFCQQSWNDPFTFGQGTKLEIKGGGSGGGEFVLTQSPGTLSLSPGERATLSCERSSGDIGDSYVSWYQQKPGQAPRLVIYADDQRPSGIPDRFSGSGSGTDFTLTISRLEPEDFAVYYCQSYDINIDIVFGGGTKVEIKGGGSGRTVAAPSVFIFPPSDEQLKSGTASVVCLLNNFYPREAKVQWKVDNALQSGNSQESVTEQDSKDSTYSLSSTLTLSKADYEKHKVYACEVTHQGLSSPVTKSFNRGEC
B8: CODV011 cross-over DVD-Ig (PR-1575521) (bispecific antibody, human IgG1, kappa, L234A L235A)
heavy: EVQLVQSGSELKKPGASVKVSCKASGYTFTNYGMYWVRQAPGQGLEWMGWINTETGKPTYADDFKGRFVFSLDTSVSTAYLQISSLKAEDTAVYYCARTNYYYRSYIFYFDYWGQGTMVTVSSGGGGSGGGGSEFVLTQSPGTLSLSPGERATLSCERSSGDIGDSYVSWYQQKPGQAPRLVIYADDQRPSGIPDRFSGSGSGTDFTLTISRLEPEDFAVYYCQSYDINIDIVFGGGTKVEIKGGGSGASTKGPSVFPLAPSSKSTSGGTAALGCLVKDYFPEPVTVSWNSGALTSGVHTFPAVLQSSGLYSLSSVVTVPSSSLGTQTYICNVNHKPSNTKVDKKVEPKSCDKTHTCPPCPAPEAAGGPSVFLFPPKPKDTLMISRTPEVTCVVVDVSHEDPEVKFNWYVDGVEVHNAKTKPREEQYNSTYRVVSVLTVLHQDWLNGKEYKCKVSNKALPAPIEKTISKAKGQPREPQVYTLPPSREEMTKNQVSLTCLVKGFYPSDIAVEWESNGQPENNYKTTPPVLDSDGSFFLYSKLTVDKSRWQQGNVFSCSVMHEALHNAYTQKSLSLSPGK
light: EVTLRESGPALVKPTQTLTLTCTFSGFSLSTYGMGVGWIRQPPGKALEWLANIWWDDDKYYNPSLKNRLTISKDTSKNQVVLTMTNMDPVDTATYYCARIESIGTTYSFDYWGQGTMVTVSSGGGGSGGGGSDTVLTQSPATLSLSPGERATLSCRASESVSTHMHWYQQKPGQAPRLLIYGASNLESGVPARFSGSGSGTDFTLTISSLEPEDFAVYFCQQSWNDPFTFGQGTKLEIKGGGSGRTVAAPSVFIFPPSDEQLKSGTASVVCLLNNFYPREAKVQWKVDNALQSGNSQESVTEQDSKDSTYSLSSTLTLSKADYEKHKVYACEVTHQGLSSPVTKSFNRGEC

The binders below were run against recombinant human PDGF-BB (human, UniProt P01127 82-190) (assay: cell-based or functional assay).
Chain of recombinant human PDGF-BB (P01127 82-190 limits assumed): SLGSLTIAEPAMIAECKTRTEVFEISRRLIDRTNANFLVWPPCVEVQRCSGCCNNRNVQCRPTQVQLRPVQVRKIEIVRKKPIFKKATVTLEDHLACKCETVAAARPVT

| Binder | NIH-3T3 hPDGF-BB Potency IC50 |
| --- | --- |
| B1 | 0.091 nM |
| B2 | 0.104 nM |
| B3 | > 5 nM |
| B4 | 5.51 nM |
| B5 | 0.572 nM |
| B6 | > 5 nM |
| B7 | 2.14 nM |
| B8 | 0.043 nM |
